Molecular target: T1, OapB (Bacillus halodurans, UniProt Q9KGD7 5-102)
T1 sequence: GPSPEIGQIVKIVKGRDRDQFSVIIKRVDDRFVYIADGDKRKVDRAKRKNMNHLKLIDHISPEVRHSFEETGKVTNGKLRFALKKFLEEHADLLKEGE
Test: X-ray crystallography

B1: OLE* (P12.2, P13, P14, P15 minimized OLE RNA) (structured_RNA)
RNA: GGCCAGUCUGGCGUUUGGUGACAGCGCCAAGUUCUUCGGAAUUGGGAAAUCCUACUGGCC
binding result: binds

From article PMC7936274
